# Target: human Fc (human)
# Test: ELISA; negative control
row,Binder,optical density
1,"368_C01 (antibody, V domains shown) VH: EVQLLESGGGLVQPGGSLRLSCAASGFTFDSYGMNWVRQAPGKGLEWVAGINYNGGYTGYADSVKGRFTISRDNSKNTLYLQMNSLRAEDTAVYYCARSATWHDTALDYWGQGTLVTVSS VL: DIQMTQSPSSLSASVGDRVTITCRASQSIITYLNWYQQKPGKAPKLLIYAATSRASGVPSRFSGSGSGTDFTLTISSLQPEDFATYYCQQSYDSPLTFGGGTKVEIK",0.41 OD
2,"376_C06 (antibody, V domains shown) VH: EVQLLESGGGLVQPGGSLRLSCAASGFTFSSYGMNWVRQAPGKGLEWVAGINYNGGYTSYADSVKGRFTISRDNSKNTLYLQMNSLRAEDTAVYYCARSATWHDTALDYWGQGTLVTVSS VL: DIQMTQSPSSLSASVGDRVTITCRASQSILSYLNWYQQKPGKAPKLVIYAATSRASGVPSRFSGSGSGTDFTLTISSLQPEDFATYYCQQSYDSPLTFGGGTKVEIK",0.29 OD
3,"368_D10 (antibody, V domains shown) VH: EVQLLESGGGLVQPGGSLRLSCAASGFTFDSYGMNWVRQAPGKGLEWVAGINYNSGYTSYADSVKGRFTISRDNSKNTLYLQMNSLRAEDTAVYYCARSATWHDTALDYWGQGTLVTVSS VL: DIQMTQSPSSLSASVGDRVTITCRASQSILSYLNWYQQKPGKAPKLVIYAATSRASGVPSRFSGSGSGTDFTLTISSLQPEDFATYYCQQSYDSPLTFGGGTKVEIK",0.245 OD
4,"365_G12 (antibody, V domains shown) VH: EVQLLESGGGLVQPGGSLRLSCAASGFTFSSYGMNWVRQAPGKGLEWVAGINYNSGYTSYADSVKGRFTISRDNSKNTLYLQMNSLRAEDTAVYYCARSATWHDTALDYWGQGTLVTVSS VL: DIQMTQSPSSLSASVGDRVTITCRASQSILSYVNWYQQKPGKAPKLVIYAATSRASGVPSRFSGSGSGTDFTLTISSLQPEDFATYYCQQSYSNPLTFGGGTKVEIK",0.556 OD
5,"367_C03 (antibody, V domains shown) VH: EVQLLESGGGLVQPGGSLRLSCAASGFTFSSYSMNWVRQAPGKGLEWVANINYNGGYTGYADSVKGRFTISRDNSKNTLYLQMNSLRAEDTAVYYCARSATWHDTALDYWGQGTLVTVSS VL: DIQMTQSPSSLSASVGDRVTITCRASQSILSYVNWYQQKPGKAPKLVIYATTSRASGVPSRFSGSGSGTDFTLTISSLQPEDFATYYCQQSYENPLTFGGGTKVEIK",0.275 OD
6,"367_H07 (antibody, V domains shown) VH: EVQLLESGGGLVQPGGSLRLSCAASGFTFSSYSMNWVRQAPGKGLEWVANINYNGGYTGYADSVKGRFTISRDNSKNTLYLQMNSLRAEDTAVYYCARSATWHDTALDYWGQGTLVTVSS VL: DIQMTQSPSSLSASVGDRVTITCRASQSILSYVNWYQQKPGKAPKLVIYATTSRASGVPSRFSGSGSGTDFTLTISSLQPEDFATYYCQQSYENPLTFGGGTKVEIK",0.297 OD
7,"369_C10 (antibody, V domains shown) VH: EVQLLESGGGLVQPGGSLRLSCAASGFTFSSYSMNWVRQAPGKGLEWVANINYNGGYTSYADSVKGRFTISRDNSKNTLYLQMNSLRAEDTAVYYCARSATWHDTALDYWGQGTLVTVSS VL: DIQMTQSPSSLSASVGDRVTITCRASQSIVTYLNWYQQKPGKAPKLLIYAATSLHSGVPSRFSGSGSGTDFTLTISSLQPEDFATYYCQQSDSLPLTFGGGTKVEIK",0.32 OD
8,"374_C08 (antibody, V domains shown) VH: EVQLLESGGGLVQPGGSLRLSCAASGFTFDSYGMNWVRQAPGKGLEWVSGINYNSGYKSYADSVKGRFTISRDNSKNTLYLQMNSLRAEDTAVYYCARSATWHDTALDYWGQGTLVTVSS VL: DIQMTQSPSSLSASVGDRVTITCRASQSILSYVNWYQQKPGKAPKLLIYAVTSRASGVPSRFSGSGSGTDFTLTISSLQPEDFATYYCQQSYDSPLTFGGGTKVEIK",0.178 OD
9,"376_A06 (antibody, V domains shown) VH: EVQLLESGGGLVQPGGSLRLSCAASGFTFDSYSMNWVRQAPGKGLEWVSGINYNSGYTSYADSVKGRFTISRDNSKNTLYLQMNSLRAEDTAVYYCARSATWHDTALDYWGQGTLVTVSS VL: DIQMTQSPSSLSASVGDRVTITCRASQSILSYLNWYQQKPGKAPKLVIYYVSNRASGVPSRFSGSGSGTDFTLTISSLQPEDFATYYCQQSYDNPLTFGGGTKVEIK",0.262 OD
10,"376_B07 (antibody, V domains shown) VH: EVQLLESGGGLVQPGGSLRLSCAASGFTFDSYSMNWVRQAPGKGLEWVSGINYNSGYTSYADSVKGRFTISRDNSKNTLYLQMNSLRAEDTAVYYCARSATWHDTALDYWGQGTLVTVSS VL: DIQMTQSPSSLSASVGDRVTITCRASQSILSYLNWYQQKPGKAPKLVIYYVSNRASGVPSRFSGSGSGTDFTLTISSLQPEDFATYYCQQSYDNPLTFGGGTKVEIK",0.234 OD
11,"365_F07 (antibody, V domains shown) VH: EVQLLESGGGLVQPGGSLRLSCAASGFTFSSYSMNWVRQAPGKGLEWVSNINYNGGYKSYADSVKGRFTISRDNSKNTLYLQMNSLRAEDTAVYYCARSATWHDTALDYWGQGTLVTVSS VL: DIQMTQSPSSLSASVGDRVTITCRASQSILSYVNWYQQKPGKAPKLVIYAATSRASGVPSRFSGSGSGTDFTLTISSLQPEDFATYYCQQSYDLPLTFGGGTKVEIK",0.331 OD
12,"369_E10 (antibody, V domains shown) VH: EVQLLESGGGLVQPGGSLRLSCAASGFTFSSYSMNWVRQAPGKGLEWVSNINYNGGYKSYADSVKGRFTISRDNSKNTLYLQMNSLRAEDTAVYYCARSATWHDTALDYWGQGTLVTVSS VL: DIQMTQSPSSLSASVGDRVTITCRASQSILSYVNWYQQKPGKAPKLVIYAATSRASGVPSRFSGSGSGTDFTLTISSLQPEDFATYYCQQSYDLPLTFGGGTKVEIK",0.412 OD
13,"373_E03 (antibody, V domains shown) VH: EVQLLESGGGLVQPGGSLRLSCAASGFTFDSYGMNWVRQAPGKGLEWVSNINYNGGYTGYADSVKGRFTISRDNSKNTLYLQMNSLRAEDTAVYYCARSATWHDTALDYWGQGTLVTVSS VL: DIQMTQSPSSLSASVGDRVTITCRASQSILSYVNWYQQKPGKAPKLVIYAATSRASGVPSRFSGSGSGTDFTLTISSLQPEDFATYYCQQSYDLPLTFGGGTKVEIK",0.194 OD
14,"366_B04 (antibody, V domains shown) VH: EVQLLESGGGLVQPGGSLRLSCAASGFTFDSYSMNWVRQAPGKGLEWVAGINYNGGYKGYADSVKGRFTISRDNSKNTLYLQMNSLRAEDTAVYYCARSATWHDTHLDYWGQGTLVTVSS VL: DIQMTQSPSSLSASVGDRVTITCRASQSILTYVNWYQQKPGKAPKLVIYAATSRHSGVPSRFSGSGSGTDFTLTISSLQPEDFATYYCQQSYDTPLTFGGGTKVEIK",0.331 OD
15,"369_F07 (antibody, V domains shown) VH: EVQLLESGGGLVQPGGSLRLSCAASGFTFDSYSMNWVRQAPGKGLEWVAGINYNGGYKSYADSVKGRFTISRDNSKNTLYLQMNSLRAEDTAVYYCARSATWHDTHLDYWGQGTLVTVSS VL: DIQMTQSPSSLSASVGDRVTITCRASQSILSYVNWYQQKPGKAPKLVIYAATSRASGVPSRFSGSGSGTDFTLTISSLQPEDFATYYCQQSYESPLTFGGGTKVEIK",0.335 OD
16,"370_A09 (antibody, V domains shown) VH: EVQLLESGGGLVQPGGSLRLSCAASGFTFSSYSMNWVRQAPGKGLEWVAGINYNGGYTGYADSVKGRFTISRDNSKNTLYLQMNSLRAEDTAVYYCARSATWHDTHLDYWGQGTLVTVSS VL: DIQMTQSPSSLSASVGDRVTITCRASQSILTYLNWYQQKPGKAPKLVIYAATSRASGVPSRFSGSGSGTDFTLTISSLQPEDFATYYCQQSYDTPLTFGGGTKVEIK",0.361 OD
